Assay results: article PMC12057046, “Elucidation of short linear motif-based interactions of the MIT and rhodanese domains of the ubiquitin-specific protease 8” (Biology Direct, 2025)

B1: KIAA1614 peptide 568-583 (uncharacterized protein KIAA1614), 16-mer library wild type / USP8 rhodanese domain (ubiquitin carboxyl-terminal hydrolase 8, residues 174-317) (parent)
chain 1: GMERVLGGLSSPLRLL
chain 2: KCETKEKGAITAKELYTMMTDKNISLIIMDARRMQDYQDSCILHSLSVPEEAISPGVTASWIEAHLPDDSKDTWKKRGNVEYVVLLDWFSSAKDLQIGTTLRSLKDALFKWESKTVLRNEPLVLEGGYENWLLCYPQYTTNAKV
B2: TET3 peptide 1705-1720 (methylcytosine dioxygenase TET3), 16-mer library wild type / USP8 rhodanese domain (ubiquitin carboxyl-terminal hydrolase 8, residues 174-317) (parent)
chain 1: GLALWEAKMKQLAERA
chain 2: B1 chain 2

Variants of: B1
Assay: peptide-phage display deep mutational scan (M13, 16-mer library, displayed with a C-terminal GGGSG linker encoded by the 3' flank) selected against the GST-tagged USP8 rhodanese domain, four rounds; NGS counts summed over selection …
Details: with USP8 rhodanese domain (ubiquitin carboxyl-terminal hydrolase 8, residues 174-317), 10 µg GST-bait on MaxiSorp, pre-cleared on GST, 2 h at 4 °C, five washes with 0.05% Tween 20 in PBS, not graded, scale: average over two replicas of the peptide's fractional NGS count

Screen value of substitutions, site by site:
chain 1 S10: H 0.00191; P 1.55e-05; I 6.32e-06; V 6.32e-06; E 1.55e-05; A 6.32e-06
chain 1 L6: S 6.32e-06; F 6.32e-06; G 6.88e-05; N 6.32e-06; I 0.00654; Q 1.9e-05; V 6.32e-06; T 5.05e-05; P 0.000164
chain 1 S11: F 2.53e-05; V 2.18e-05; A 1.26e-05; N 0.0195; E 0.000128; Y 6.32e-06; D 0.0401; T 0.000682; R 6.32e-06
chain 1 G1: H 0.00494; P 0.00104; Q 0.0088; Y 0.000202; L 3.16e-05; S 0.00457; R 0.000532; A 0.0197; N 0.0012; D 0.00131; T 0.00523; W 0.00137; F 6.32e-06; K 0.000202; M 0.000324; V 3.79e-05; E 0.000708; I 8.36e-05
chain 1 L13: M 0.000258; E 0.000467; Y 0.000122; N 6.32e-06; R 1.26e-05; F 3.09e-05; H 2.53e-05; D 3.72e-05; A 4.42e-05; G 6.32e-05; S 0.00179; K 6.32e-06; P 1.26e-05; T 0.00145; W 0.000724; V 0.000364
chain 1 G8: D 6.32e-06; N 1.26e-05; T 6.32e-06; V 0.000138
chain 1 L15: I 6.32e-06; V 1.26e-05; G 1.26e-05; N 1.26e-05; A 1.26e-05
chain 1 V5: E 0.0217; D 0.0242; F 0.0191; Y 0.00426; W 0.011; T 0.0104; S 0.000158; Q 0.014; H 0.0085; M 0.00268; R 0.000121; K 6.6e-05; A 0.000433; N 0.00579; L 0.000344; P 0.00189; G 0.00207; I 9.76e-05
chain 1 G7: T 0.0883; I 0.000523; P 1.55e-05; Y 0.000924; L 0.000596; K 1.55e-05; R 0.00011; A 0.00275; M 0.00706; S 0.000797; E 0.00446; Q 0.00689; D 0.0412; W 6.32e-06; F 0.00722; N 0.00247; H 0.000322; V 0.0068
chain 1 M2: H 0.0157; D 0.0101; T 0.0119; N 0.00694; E 0.0668; A 0.00538; P 0.0198; R 0.00145; G 0.0456; V 0.0166; S 0.00782; Y 0.00188; L 0.00111; F 0.00131; K 0.00296; I 0.00918; Q 0.00237; W 0.000604
chain 1 P12: R 1.26e-05; T 1.55e-05; S 0.000236; Q 6.32e-06; L 6.32e-06
chain 1 L16: V 5.05e-05; G 6.32e-06; T 1.55e-05; A 1.55e-05; Q 7.58e-05; N 6.32e-06; P 1.26e-05; I 0.000468; H 0.000246; M 0.00379; F 2.53e-05
chain 1 L9: Y 6.18e-05; D 0.0392; N 0.00178; P 0.000947; T 0.0151; E 0.164; G 9.76e-05; F 3.79e-05; K 9.69e-05; V 0.00586; A 0.00126; I 0.000484; W 0.000202; M 9.62e-05; Q 0.0169; R 1.26e-05; H 4.07e-05; S 0.000763
chain 1 R4: T 6.32e-06; L 1.26e-05; W 5.05e-05; A 1.55e-05; N 1.9e-05
chain 1 E3: N 0.000897; W 0.000133; H 0.00012; L 6.32e-05; S 0.000223; T 8.85e-05; A 0.000229; P 9.48e-05; D 0.00356; Y 0.000118; V 1.26e-05; F 6.32e-06; Q 0.00108
chain 1 R14: Q 3.44e-05; S 0.00245; H 0.000346; T 0.00135; V 0.0436; G 1.9e-05; A 0.00719; N 5.27e-05; M 0.0219; F 0.00138; I 0.00646; L 0.000793; K 0.000355; W 0.00337; Y 0.000377; E 1.9e-05

Variants of: B2
Assay: as above
Details: with USP8 rhodanese domain (ubiquitin carboxyl-terminal hydrolase 8, residues 174-317), 10 µg GST-bait on MaxiSorp, pre-cleared on GST, 2 h at 4 °C, five washes with 0.05% Tween 20 in PBS, not graded, scale: average over two replicas of the peptide's fractional NGS count

Screen value of substitutions, site by site:
chain 1 R15: Q 0.0216; W 0.000125; T 0.00935; S 0.0149; V 2.45e-05; Y 0.0485
chain 1 W5: G 7.36e-05; M 0.00029; P 4.33e-05; S 7.78e-05; T 4.33e-06; V 4.33e-06; H 4.33e-06; L 1.15e-05; R 1.58e-05; F 4.33e-06; K 8.66e-06
